The text below walks through data of paper PMC7948450.

This test concerns the target ancestral flavin-containing monooxygenase 1 (AncFMO1), reconstructed mammalian ancestor of FMO1 (reconstructed mammalian ancestor). The test can be described thus: crystal structure; AncFMO1 12.5 mg/ml with 1.0 mM NADP+ in storage buffer with 0.03% DDM; sitting drop, 20 °C, 100 mM Hepes pH 7.5, PEG 4000 10%, glycerol 20%; 3.0 Å; asymmetric unit of two dimers.

In general, stoichiometry N refers to the number of molecules, sites or subunits per partner or assembly. As for “ancestral flavin-containing monooxygenase 1 (AncFMO1), reconstructed mammalian ancestor of FMO1 (enzyme)”, the stoichiometry N amounted to 2.
